US20130330359A1

How the values were obtained:
[1] = target: carrier free RGMa (R&D Systems) (UniProt Q96B86); experiment: direct EIA: carrier-free RGMa coated at 0.5 ug/mL; sample at 2 ug/ml; goat anti-mouse IgG-HRPO
[2] = target: carrier free RGMb (R&D Systems) (UniProt Q6NW40); experiment: direct EIA: carrier-free RGMb coated at 0.5 ug/mL; sample at 2 ug/ml; goat anti-mouse IgG-HRPO
[3] = target: carrier free RGMc (R&D Systems) (human) (UniProt Q6ZVN8); experiment: direct EIA: carrier-free RGMc coated at 0.5 ug/mL; sample at 2 ug/ml; goat anti-mouse IgG-HRPO
carrier free RGMc (R&D Systems) (human), sequence (Q6ZVN8 36-400 limits assumed): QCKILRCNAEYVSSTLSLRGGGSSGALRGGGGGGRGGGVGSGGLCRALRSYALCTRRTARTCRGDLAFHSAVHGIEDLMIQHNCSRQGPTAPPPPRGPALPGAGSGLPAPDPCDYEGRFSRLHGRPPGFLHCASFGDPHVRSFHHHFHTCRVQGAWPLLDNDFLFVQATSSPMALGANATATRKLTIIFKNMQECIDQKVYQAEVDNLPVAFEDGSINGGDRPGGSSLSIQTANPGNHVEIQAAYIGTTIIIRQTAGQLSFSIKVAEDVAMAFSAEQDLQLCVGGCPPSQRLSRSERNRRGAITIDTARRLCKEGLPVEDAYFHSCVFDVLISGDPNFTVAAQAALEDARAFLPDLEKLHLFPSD

carrier free RGMb (R&D Systems), sequence (Q6NW40 46-413 limits assumed): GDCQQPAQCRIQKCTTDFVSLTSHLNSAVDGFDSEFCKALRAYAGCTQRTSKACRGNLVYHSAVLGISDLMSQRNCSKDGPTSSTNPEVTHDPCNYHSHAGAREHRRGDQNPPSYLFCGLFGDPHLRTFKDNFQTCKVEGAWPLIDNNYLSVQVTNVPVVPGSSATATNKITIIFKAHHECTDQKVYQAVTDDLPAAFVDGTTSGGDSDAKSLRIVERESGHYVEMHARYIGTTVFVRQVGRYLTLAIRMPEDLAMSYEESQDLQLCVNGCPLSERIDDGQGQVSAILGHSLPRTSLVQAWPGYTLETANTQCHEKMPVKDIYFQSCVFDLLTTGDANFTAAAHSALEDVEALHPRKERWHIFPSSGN
carrier free RGMa (R&D Systems), sequence (Q96B86 48-422 limits assumed): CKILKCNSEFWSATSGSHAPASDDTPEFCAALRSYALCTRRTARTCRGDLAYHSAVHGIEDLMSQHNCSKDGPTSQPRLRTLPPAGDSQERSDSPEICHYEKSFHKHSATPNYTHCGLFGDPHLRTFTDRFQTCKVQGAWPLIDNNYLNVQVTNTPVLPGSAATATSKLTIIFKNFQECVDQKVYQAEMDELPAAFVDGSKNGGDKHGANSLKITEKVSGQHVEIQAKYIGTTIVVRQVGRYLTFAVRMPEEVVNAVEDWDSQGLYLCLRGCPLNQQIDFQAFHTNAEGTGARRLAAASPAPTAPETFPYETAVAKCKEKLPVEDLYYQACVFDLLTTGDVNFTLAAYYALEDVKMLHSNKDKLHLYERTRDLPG

absorbance at 492 nm [1]: 0.1
absorbance at 492 nm [2]: 0.09
absorbance at 492 nm [3]: 0.14
Substance: negative control: purified mouse mAb from an irrelevant / different antigen system (antibody)
